Source: patent US20110281938, “APTAMERS TO TISSUE FACTOR PATHWAY INHIBITOR AND THEIR USE AS BLEEDING DISORDER THERAPEUTICS” (Baxter Healthcare S.A., published 2011)

Biological target: T1, TFPI (tissue factor pathway inhibitor, full-length) (Homo sapiens, UniProt P10646 SEQ:1-276)
Test: competition; dot-blot
Details: tags: American Diagnostica 4500PC/4900PC, E. coli expressed
Procedure: (§1) The substituted ARC17480 molecules were assayed for binding and function. The assays used for this evaluation were the calibrated automated thrombogram (CAT) assay, a dot-blot binding-competition assay and a FXa activity assay. The results of these assays are summarized in Table 40 and depicted in FIG. 147. A mutation was considered tolerated for activity if it met the criteria of at least two of the three assays that were carried out. Mutations that are tolerated (“yes”) and not tolerated (“no”) are identified in Table 40. The experimental details and the criteria used for each assay are described in the following paragraphs. The molecules described in this example were first tested in the CAT assay and the dot-blot binding-competition assay. In most cases, molecules were only tested in the FXa assay if there was a discrepancy between the results in the CAT assay and the dot-blot binding-competition assay.
(§2) Each molecule was evaluated for binding to tissue factor pathway inhibitor (TFPI) in a binding-competition assay. For these experiments, 10 nM human TFPI (American Diagnostica, Stamford, Conn., catalog #4900PC) was incubated with trace amounts of radiolabeled ARC17480 and 5000 nM, 1666.67 nM, 555.56 nM, 185.19 nM, 61.73 nM, 20.58 nM, 6.86 nM, 2.29 nM, 0.76 nM or 0.25 nM of unlabeled competitor aptamer. ARC17480 was included as a competitor in every experiment as a control. For each molecule, the percentage of radiolabeled ARC17480 bound at each competitor aptamer concentration was used for analysis. The percentage of radiolabeled ARC17480 bound was plotted as a function of aptamer concentration and fit to the equation y=(max/(1+x/IC₅₀))+int, where y=the percentage of radiolabeled ARC17480 bound, x=the concentration of aptamer, max=the maximum radiolabeled ARC17480 bound, and int=the y-intercept, to generate an IC₅₀ value for binding-competition. The IC₅₀ of each aptamer was compared to the IC₅₀ of ARC17480 that was evaluated in the same experiment. A mutation was considered tolerated in the binding-competition assay if the IC₅₀ of that molecule was not more than 5-fold greater than that of ARC17480 evaluated in the same experiment. Tolerated mutations are indicated in Table 40 as meeting the assay criteria (“yes”) or not meeting the assay criteria (“no”).

T1 sequence (P10646 29-304): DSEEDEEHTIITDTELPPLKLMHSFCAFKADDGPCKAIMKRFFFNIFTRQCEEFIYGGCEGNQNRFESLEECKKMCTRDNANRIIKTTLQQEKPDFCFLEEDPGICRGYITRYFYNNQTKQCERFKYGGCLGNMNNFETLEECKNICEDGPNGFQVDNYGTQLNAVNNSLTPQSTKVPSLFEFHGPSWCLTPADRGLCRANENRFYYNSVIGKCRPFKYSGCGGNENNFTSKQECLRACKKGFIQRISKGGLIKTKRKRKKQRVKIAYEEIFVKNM

Binder	binding signal
CGAAUAUACUUGGCUCGUUAGGUGCGUAUAUA (XNA, 2'-OMe except dC9, dC14, dC16, dC25; 3' idT) [ARC34857]	≤ 5 fold IC50 vs ARC17480
GAAAUAUACUUGGCUCGUUAGGUGCGUAUAUA (XNA, 2'-OMe except dC9, dC14, dC16, dC25; 3' idT) [ARC34858]	≤ 5 fold IC50 vs ARC17480
GCAAUAUACUUGGCUCGUUAGGUGCGUAUAUA (XNA, 2'-OMe except dC9, dC14, dC16, dC25; 3' idT) [ARC34859]	≤ 5 fold IC50 vs ARC17480
GGGAUAUACUUGGCUCGUUAGGUGCGUAUAUA (XNA, 2'-OMe except dC9, dC14, dC16, dC25; 3' idT) [ARC34860]	≤ 5 fold IC50 vs ARC17480
GGCAUAUACUUGGCUCGUUAGGUGCGUAUAUA (XNA, 2'-OMe except dC9, dC14, dC16, dC25; 3' idT) [ARC34861]	≤ 5 fold IC50 vs ARC17480
GGAGUAUACUUGGCUCGUUAGGUGCGUAUAUA (XNA, 2'-OMe except dC9, dC14, dC16, dC25; 3' idT) [ARC34862]	≤ 5 fold IC50 vs ARC17480

Biological target: T1, TFPI (tissue factor pathway inhibitor, …)
Test: competition; fails binding-competition criterion
Details: tags: American Diagnostica 4500PC/4900PC, E. coli expressed
Procedure: as §1, §2

Binder	binding signal
GGAAUAUACUUGGCUCGUUAGGUGTGUAUAUA (mixed, 2'-OMe A/G/U, dT25, 2'-deoxy C, 3' idT) [ARC33173]	> 5 fold IC50 of ARC17480
GGAAUAUACUUGGCUCGUUAGGUGCUUAUAUA (mixed, 2'-OMe A/G/U, 2'-deoxy C, 3' idT) [ARC33174]	> 5 fold IC50 of ARC17480
GGAAUAUACUUGGCUCGUUAGGUGCGCAUAUA (mixed, 2'-OMe A/G/U and mC27, other C 2'-deoxy, 3' idT) [ARC33175]	> 5 fold IC50 of ARC17480
GGAAUAUACUUGGCUCGUUAGGUGCGUUUAUA (mixed, 2'-OMe A/G/U, 2'-deoxy C, 3' idT) [ARC33176]	> 5 fold IC50 of ARC17480
GGAAUAAACUUGGCUCGUUAGGUGCGUAUAUA (mixed, 2'-OMe A/G/U, 2'-deoxy C, 3' idT) [ARC34868]	> 5 fold IC50 of ARC17480
GGAAUAGACUUGGCUCGUUAGGUGCGUAUAUA (mixed, 2'-OMe A/G/U, 2'-deoxy C, 3' idT) [ARC34869]	> 5 fold IC50 of ARC17480
GGAAUAUATUUGGCUCGUUAGGUGCGUAUAUA (mixed, 2'-OMe A/G/U, dT9, 2'-deoxy C, 3' idT) [ARC33157]	> 5 fold IC50 of ARC17480
GGAAUAUACUCGGCUCGUUAGGUGCGUAUAUA (mixed, 2'-OMe A/G/U and mC11, other C 2'-deoxy, 3' idT) [ARC33159]	> 5 fold IC50 of ARC17480
GGAAUAUACUUUGCUCGUUAGGUGCGUAUAUA (mixed, 2'-OMe A/G/U, 2'-deoxy C, 3' idT) [ARC33160]	> 5 fold IC50 of ARC17480
GGAAUAUACUUGUCUCGUUAGGUGCGUAUAUA (mixed, 2'-OMe A/G/U, 2'-deoxy C, 3' idT) [ARC33161]	> 5 fold IC50 of ARC17480
GGAAUAUACUUGGCCCGUUAGGUGCGUAUAUA (mixed, 2'-OMe A/G/U and mC15, other C 2'-deoxy, 3' idT) [ARC33163]	> 5 fold IC50 of ARC17480

Biological target: T1, TFPI (tissue factor pathway inhibitor, …)
Test: competition; meets binding-competition criterion
Details: tags: American Diagnostica 4500PC/4900PC, E. coli expressed
Procedure: as §1, §2

Binder	binding signal
GGAAUAUACUUGGCUCGUCAGGUGCGUAUAUA (mixed, 2'-OMe A/G/U and mC19, other C 2'-deoxy, 3' idT) [ARC33167]	≤ 5 fold IC50 of ARC17480
GGAAUAUACUUGGCUCGUUAGGUGCGUAUUUA (mixed, 2'-OMe A/G/U, 2'-deoxy C, 3' idT) [ARC33178]	≤ 5 fold IC50 of ARC17480
GGAAUAUACUUGGCUCGUUAGGUGCGUAUACA (mixed, 2'-OMe A/G/U and mC31, other C 2'-deoxy, 3' idT) [ARC33179]	≤ 5 fold IC50 of ARC17480
GGAAUAUACUUGGCUCGUUAGGUGCGUAUAUU (mixed, 2'-OMe A/G/U, 2'-deoxy C, 3' idT) [ARC33180]	≤ 5 fold IC50 of ARC17480
UGAAUAUACUUGGCUCGUUAGGUGCGUAUAUA (mixed, 2'-OMe A/G/U, 2'-deoxy C, 3' idT) [ARC33149]	≤ 5 fold IC50 of ARC17480
GUAAUAUACUUGGCUCGUUAGGUGCGUAUAUA (mixed, 2'-OMe A/G/U, 2'-deoxy C, 3' idT) [ARC33150]	≤ 5 fold IC50 of ARC17480
GGUAUAUACUUGGCUCGUUAGGUGCGUAUAUA (mixed, 2'-OMe A/G/U, 2'-deoxy C, 3' idT) [ARC33151]	≤ 5 fold IC50 of ARC17480
GGAUUAUACUUGGCUCGUUAGGUGCGUAUAUA (mixed, 2'-OMe A/G/U, 2'-deoxy C, 3' idT) [ARC33152]	≤ 5 fold IC50 of ARC17480
GGAACAUACUUGGCUCGUUAGGUGCGUAUAUA (mixed, 2'-OMe A/G/U and mC5, other C 2'-deoxy, 3' idT) [ARC33153]	≤ 5 fold IC50 of ARC17480
GGAAUAUACCUGGCUCGUUAGGUGCGUAUAUA (mixed, 2'-OMe A/G/U and mC10, other C 2'-deoxy, 3' idT) [ARC33158]	≤ 5 fold IC50 of ARC17480

Biological target: T1, TFPI (tissue factor pathway inhibitor, …)
Test: competition; meets binding-competition criterion
Details: tags: American Diagnostica 4500PC/4900PC, E. coli expressed
Remark: another data set of the same source
Procedure: Each molecule was evaluated for binding to tissue factor pathway inhibitor (TFPI) in a binding-competition assay. For these experiments, 10 nM human TFPI (American Diagnostica, Stamford, Conn., catalog #4500PC) was incubated with trace amounts of radiolabeled ARC17480 and 5000 nM, 1666.67 nM, 555.56 nM, 185.19 nM, 61.73 nM, 20.58 nM, 6.86 nM, 2.29 nM, 0.76 nM or 0.25 nM of unlabeled competitor aptamer. ARC17480 was included as a competitor in every experiment as a control. For each molecule, the percentage of radiolabeled ARC17480 bound at each competitor aptamer concentration was used for analysis. The percentage of radiolabeled ARC17480 bound was plotted as a function of aptamer concentration and fit to the equation y=(max/(1+x/IC₅₀))+int, where y=the percentage of radiolabeled ARC17480 bound, x=the concentration of aptamer, max=the maximum radiolabeled ARC17480 bound, and int=the y-intercept, to generate an IC₅₀ value for binding-competition. The IC₅₀ of each aptamer was compared to the IC₅₀ of ARC17480 that was evaluated in the same experiment. A substitution was considered tolerated in the binding-competition assay if the IC₅₀ of that molecule was not more than 5-fold greater than that of ARC17480 evaluated in the same experiment. Tolerated substitutions are indicated in Table 38 as meeting the assay criteria (“yes”) or not meeting the assay criteria (“no”).

Binder	binding signal
GAAUAUACUUGGCUCGUUAGGUGCGUAUAUA (mixed, 2'-OMe A/G/U, 2'-deoxy C, 3' idT) [ARC32301]	≤ 5 fold IC50 of ARC17480
GGAUAUACUUGGCUCGUUAGGUGCGUAUAUA (mixed, 2'-OMe A/G/U, 2'-deoxy C, 3' idT) [ARC33120]	≤ 5 fold IC50 of ARC17480
GGAAAUACUUGGCUCGUUAGGUGCGUAUAUA (mixed, 2'-OMe A/G/U, 2'-deoxy C, 3' idT) [ARC33121]	≤ 5 fold IC50 of ARC17480
GGAAUAUACUUGGCUCGUUAGGUGCGUAUUA (mixed, 2'-OMe A/G/U, 2'-deoxy C, 3' idT) [ARC33142]	≤ 5 fold IC50 of ARC17480
GGAAUAUACUUGGCUCGUUAGGUGCGUAUAA (mixed, 2'-OMe A/G/U, 2'-deoxy C, 3' idT) [ARC33143]	≤ 5 fold IC50 of ARC17480
GGAAUAUACUUGGCUCGUUAGGUGCGUAUAU (mixed, 2'-OMe A/G/U, 2'-deoxy C, 3' idT) [ARC18555]	≤ 5 fold IC50 of ARC17480
AAUAUACUUGGCUCGUUAGGUGCGUAUAUA (mixed, 2'-OMe A/G/U, 2'-deoxy C, 3' idT) [ARC32302]	≤ 5 fold IC50 of ARC17480
GGUAUACUUGGCUCGUUAGGUGCGUAUAUA (mixed, 2'-OMe A/G/U, 2'-deoxy C, 3' idT) [ARC33144]	≤ 5 fold IC50 of ARC17480
AUAUACUUGGCUCGUUAGGUGCGUAUAUA (mixed, 2'-OMe A/G/U, 2'-deoxy C, 3' idT) [ARC32303]	≤ 5 fold IC50 of ARC17480
GAAUAUACUUGGCUCGUUAGGUGCGUAUAU (mixed, 2'-OMe A/G/U, 2'-deoxy C, 3' idT) [ARC32305]	≤ 5 fold IC50 of ARC17480
AAUAUACUUGGCUCGUUAGGUGCGUAUA (mixed, 2'-OMe A/G/U, 2'-deoxy C, 3' idT) [ARC32306]	≤ 5 fold IC50 of ARC17480
AUAUACUUGGCUCGUUAGGUGCGUAU (mixed, 2'-OMe A/G/U, 2'-deoxy C, 3' idT) [ARC32307]	≤ 5 fold IC50 of ARC17480
AUAUACUUGGCUCGUUAGGUGCGUAUA (mixed, 2'-OMe A/G/U, 2'-deoxy C, 3' idT) [ARC33890]	≤ 5 fold IC50 of ARC17480
UAUACUUGGCUCGUUAGGUGCGUAUA (mixed, 2'-OMe A/G/U, 2'-deoxy C, 3' idT) [ARC33891]	≤ 5 fold IC50 of ARC17480
AUACUUGGCUCGUUAGGUGCGUAUA (mixed, 2'-OMe A/G/U, 2'-deoxy C, 3' idT) [ARC33895]	≤ 5 fold IC50 of ARC17480
UUACUUGGCUCGUUAGGUGCGUAUA (mixed, 2'-OMe A/G/U, 2'-deoxy C, 3' idT) [ARC33900]	≤ 5 fold IC50 of ARC17480
GGAAUACUUGGCUCGUUAGGUGCGUAUAUA (mixed, 2'-OMe A/G/U, 2'-deoxy C, 3' idT) [ARC33907]	≤ 5 fold IC50 of ARC17480
